Test in all cases: purified protein
In data set [1] the test system is Cc1cn([C@H]2C[C@H](O)[C@@H](COP(=O)(O)O)O2)c(=O)[nH]c1=O. The following applies: 50 mM Tris-HCl pH 9, 5 mM KCl, 135 mM NaCl, 10 mM glucose, 10 mM MgCl2, 0-2 mM substrate.
Data set [2] deals with Nc1ccn([C@@H]2O[C@H](COP(=O)(O)O)[C@@H](O)[C@H]2O)c(=O)n1. Conditions: 50 mM Tris-HCl pH 9, 5 mM KCl, 135 mM NaCl, 10 mM glucose, 10 mM MgCl2, 0-2 mM substrate.
Data set [3] relates to O=[N+]([O-])c1ccc(OP(=O)(O)O)cc1. The following applies: 50 mM Tris-HCl pH 9, 5 mM KCl, 135 mM NaCl, 10 mM glucose, 10 mM MgCl2.
Data set [4] relates to Nc1nc2c(ncn2[C@@H]2O[C@H](COP(=O)(O)O)[C@@H](O)[C@H]2O)c(=O)[nH]1. Conditions: 50 mM Tris-HCl pH 9, 5 mM KCl, 135 mM NaCl, 10 mM glucose, 10 mM MgCl2, 0-2 mM substrate.
Data set [5] has as its system Nc1ncnc2c1ncn2[C@@H]1O[C@H](COP(=O)(O)O)[C@@H](O)[C@H]1O. The following applies: 50 mM Tris-HCl pH 9, 5 mM KCl, 135 mM NaCl, 10 mM glucose, 10 mM MgCl2, 0-2 mM substrate.

One may read the Km as the substrate concentration at which the rate is half of its maximum. Take “rSmAP (recombinant Schistosoma mansoni alkaline phosphatase) (Schistosoma mansoni)”: the Km in data set [1] came out at 595 µM; in data set [2], 630 ± 20 µM; in data set [3] it was 288 ± 12 µM; in data set [4], 640 ± 11 µM; in data set [5] it was 650 µM.

The values above are taken from publication PMC6077193, “Intravascular Schistosoma mansoni Cleave the Host Immune and Hemostatic Signaling Molecule Sphingosine-1-Phosphate via Tegumental Alkaline Phosphatase” (Frontiers in Immunology, 2018).
